Blank lines part the entries; values can stand above or below the binder they belong to. Square brackets hold non-standard residues; d marks the D form. Ends that are not written are not given here. Me3 = trimethyl group on lysine (trimethyl-lysine); Arg(Me2a) = CN(C)C(=N)NCCC[C@H](N)C(=O)O; Lys(Me3) = C[N+](C)(C)CCCC[C@H](N)C(=O)O
Tests used:
Conditions in all cases: both partners purified
Spindlin1 (aa: 50–262) [1] = biological target: T1, Spindlin1 (aa: 50–262) (human, UniProt Q9Y657 50-262); assay: crystal structure; 1:1.5 molar ratio of Spindlin1 (aa 50-262)/C11orf84 (aa 253-295) binary complex and H3K4me3K9me3 (A1-G12) peptide; hanging drop, 291 K; 1.60 Å
T1 construct: The methods describe only co-expression plasmids with C11orf84; also called Spindlin1 alone

Spindlin4 = biological target: T2, Spindlin4 (human); assay: ITC; 25 °C, MicroCal ITC200; 20 mM HEPES pH 7.5, 150 mM NaCl; 0.8 mM H3 peptide injected into 50 μM protein or complex in the sample cell
T2 construct: human Spindlin4; Construct, host and purification of the Spindlin4 used for ITC are told nowhere
T2 chain: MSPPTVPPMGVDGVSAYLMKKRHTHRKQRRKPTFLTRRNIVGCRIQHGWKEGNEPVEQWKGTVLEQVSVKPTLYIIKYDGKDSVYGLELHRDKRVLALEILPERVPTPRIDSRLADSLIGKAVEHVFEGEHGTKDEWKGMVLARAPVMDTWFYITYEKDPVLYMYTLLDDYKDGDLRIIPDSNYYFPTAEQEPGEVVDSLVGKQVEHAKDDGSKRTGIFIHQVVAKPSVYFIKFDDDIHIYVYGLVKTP

Spindlin1 (aa: 50-262) = biological target: T3, Spindlin1 (aa: 50-262) (human); assay: as above
T3 construct: for the ITC of 'Spindlin1' alone the limits are not restated

Spindlin1 (aa: 50–262) [2] = biological target: T1, Spindlin1 (aa: 50–262); assay: ITC; 25 °C, MicroCal ITC200; 20 mM HEPES pH 7.5, 150 mM NaCl; 50 μM Spindlin1 or Spindlin1/C11orf84 complex in the cell, 0.8 mM peptide injected
Spindlin1 (aa: 50–262) [3] = biological target: T1, Spindlin1 (aa: 50–262); assay: anion-exchange chromatography; co-expressed Spindlin1 (aa 50-262) and C11orf84 (aa 219-305); SDS-PAGE of the peak fraction
[4] = biological target: T4, Spindlin1 (aa: 50–262)/C11orf84 (aa: 253–295) binary complex (human, UniProt Q9Y657 50-262; Q9BUA3 253-295); assay: crystal structure; 1:1.5 molar ratio of Spindlin1 (aa 50-262)/C11orf84 (aa 253-295) binary complex and H3K4me3K9me3 (A1-G12) peptide; hanging drop, 291 K; 1.60 Å
T4 construct: This binary complex was mixed with the H3K4me3K9me3 (A1-G12) peptide for crystallisation; also called Spindlin1/C11orf84
T4 sequence (Q9Y657 50-262, one chain of several): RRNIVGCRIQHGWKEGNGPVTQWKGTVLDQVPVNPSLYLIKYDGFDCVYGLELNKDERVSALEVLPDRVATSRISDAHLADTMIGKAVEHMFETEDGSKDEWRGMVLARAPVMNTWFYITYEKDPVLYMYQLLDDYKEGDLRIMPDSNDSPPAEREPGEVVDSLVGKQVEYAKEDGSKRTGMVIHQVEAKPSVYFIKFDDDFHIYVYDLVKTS

T3 sequence (chain, as listed by the source): as the sequence (Q9Y657 50-262, one chain of several) above
T1 sequence (Q9Y657 50-262): as the sequence (Q9Y657 50-262, one chain of several) above

B2: H3K4me3K9me3 peptide, H3 (1-12) (peptide)
peptide: ARTK(Me3)QTARK(Me3)STG
notes: histone H3 N-terminal tail, residues 1-12; also called H3K4me3K9me3 (A1-G12) peptide
Kd (Spindlin4): 41 ± 5 nM
stoichiometry N (Spindlin1 (aa: 50-262)): 1.04

Binder: ART[Lys(Me3)]QTA[Arg(Me2a)]KSTG [H3K4me3R8me2a peptide]
fold by which the affinity for H3K4me3K9me3 is higher than for this peptide (Spindlin1 (aa: 50–262) [2]): ~4 fold

B3: H3K4me3R8me2a peptide, H3 (1-12) (peptide)
peptide: ARTK(Me3)QTAR(asymmetric Me2)KSTG
notes: histone H3 N-terminal tail, residues 1-12
Kd (Spindlin1 (aa: 50-262)): 170 nM
stoichiometry N (Spindlin1 (aa: 50-262)): 1.02

The remaining lines, values ahead:

binding result (Spindlin1 (aa: 50–262) [1]): binds
B1: C11orf84 (aa: 253–295) (domain or fragment, human, UniProt Q9BUA3 253-295, looked up)
chain: TETFAAPAEVRHFTDGSFPAGFVLQLFSHTQLRGPDSKDSPKD
notes: T255-Q283 defined in the electron density; The cloning of this fragment is not described; It is named only as part of the binary complex used for crystallisation; also called C11orf84 fragment; C11orf84 segment

binding result (Spindlin1 (aa: 50–262) [3]): binds
B4: C11orf84 (aa: 219–305) (domain or fragment, human, UniProt Q9BUA3 219-305, looked up)
chain: WKEPPGEEPVRKKRGRPMTKNLDPDPEPPSPDSPTETFAAPAEVRHFTDGSFPAGFVLQLFSHTQLRGPDSKDSPKDREVAEGGLPR

binding result (Spindlin1 (aa: 50–262) [1]): binds
binding result [4]: binds
B5: H3K4me3K9me3 (A1-G12) peptide (peptide, UniProt P68431 2-13, looked up)
peptide: ARTK(Me3)QTARK(Me3)STG
notes: histone H3 residues A1-G12; This is the peptide of the crystal structure; also called H3K4me3K9me3 peptide; methyl histone peptide
